US5985836A, “Alpha-1 proteinase inhibitor binding peptides” (Bayer Corporation, priority 1998, dated 1999)
Ends that are not written are not given here.

Columns and labels:
[1] = molecular target: T1, A1PI (Homo sapiens, UniProt P01009); assay: A1PI binding on peptide-resin column, injection of 1 mg A1PI in equilibration buffer; details: 1 mg A1PI in equilibration buffer
T1 construct: Human plasma is currently the only approved source of therapeutic AlPI
Outline: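 Peptides synthesized on A-Totda-Toyopearl chelate resin (0.1 mmole/g) packed in 0.4×5 cm columns; 1 mg A1PI injected in equilibration buffer at 4 °C or 20 °C, 865 or 523 μl/min. Flowthrough, 1M/3M NaCl washes and 2% acetic acid eluate quantified by A280 or immunonephelometry as percent of total eluted.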

[2] = molecular target: T1, A1PI; assay: A1PI purification from 5 mg hSA + 1 mg A1PI on peptide column, A1PI mass balance; format: binding; details: A1PI, 5 mg hSA + 1 mg A1PI; for Percent Eluted by Fraction, 1M NaCl / Percent Eluted by Fraction, 2% Ac. Acid / Percent Eluted by Fraction, 3M NaCl / Percent Eluted by Fraction, Flow: relative to total eluted
Outline: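 Peptides on A-Totda-Toyopearl resin (0.1 mmole/g) in 0.4×5 cm columns; 5 mg hSA + 1 mg A1PI loaded at 4 °C or 20 °C with 10 min residence (17 μl/min). Steps of 1M and 3M NaCl, then 2% acetic acid; fractions quantified by immunonephelometry for mass balance.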

[3] = molecular target: T1, A1PI; assay: Purification of A1PI from Effluent II+III on peptide column, A1PI mass balance; format: binding; details: A1PI, 1 ml Eff. II+III, 4° C.
Outline: (§1)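 First, 1 ml of the ethanolic Cohn intermediate (20% ethanol, ~1 mg/ml A1PI) is injected and held for a 10 min residence time. Columns are then eluted stepwise at a constant 865 μl/min with 1M NaCl, 3M NaCl and finally 2% acetic acid, all at 4° C.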

[4] = molecular target: T2, apolipoprotein alpha-1 (Apo A-1) (Homo sapiens, UniProt P02647); assay: Purification from Effluent II+III, Apo A-1 mass balance; format: binding; details: 1 ml Eff. II+III, 4° C.
T2 construct: Eff; II+III is a process intermediate in the Cohn plasma fractionation process; tissue Bayer Corporation (Clayton, N.C.); host or cells: plasma fraction: Cohn Effluent II+III
Outline: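 Mass balance per protein was determined over the load and each step eluate (1M NaCl, 3M NaCl, 2% acetic acid) of peptide columns challenged with 1 ml Effluent II+III. The feed contained 20% ethanol and 20-25 mg/ml hSA, the flow was 865 μl/min after a 10 min residence, and the temperature was 4° C.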

[5] = system: Immunoglobulin A (IgA); assay: Purification from Effluent II+III, IgA mass balance; format: binding, human; details: 1 ml Eff. II+III, 4° C.
Outline: as §1

[6] = system: Immunoglobulin G (IgG); assay: Purification from Effluent II+III, IgG mass balance; format: binding, human; details: 1 ml Eff. II+III, 4° C.
Outline: as §1

[7] = system: haptoglobin (Hpt); assay: Purification from Effluent II+III, haptoglobin mass balance; format: binding, human; details: 1 ml Eff. II+III, 4° C.
Procedure: Sequences 1-11 and 15 were assayed with Effluent II+III (Eff. II+III). Eff. II+III is a process intermediate in the Cohn plasma fractionation process. The feed stream contains 20% (by volume) ethanol, 20-25 mg/ml hSA and approximately 1 mg/ml AlPI. The stream also contains other proteins including anti-thrombin III (AT3), immunoglobin G (IgG), immunoglobin A (IgA), apolipoprotein alpha-1 (Apo A-1), transferrin (Trf), haptoglobin (Hpt), and alpha-1 acid glycoprotein (AAG) at concentrations ranging from 0.1-1 mg/ml.
The columns were assayed using the same technique as the hSA+AlPI experiments, allowing for a 10 minute residence time followed by a constant flow rate of 865 μl/min with step elutions of 1M NaCl, 3M NaCl, and 2% acetic acid. All experiments were conducted at 4° C. The mass balances for the injection of 1 ml Eff. […] The AlPI was enriched from 3% of the total protein in the feed to upwards of 50% in the acid eluate.

[8] = molecular target: T1, A1PI; assay: Capture and elution of active A1PI with 2M urea buffer (elastase inhibition activity assay and immunonephelometry); format: binding; details: 4° C.
[9] = 20° C., * Below detection limit
[10] = * as in Tables 4, 5 (below detection limit)

T1 sequence (P01009 25-418): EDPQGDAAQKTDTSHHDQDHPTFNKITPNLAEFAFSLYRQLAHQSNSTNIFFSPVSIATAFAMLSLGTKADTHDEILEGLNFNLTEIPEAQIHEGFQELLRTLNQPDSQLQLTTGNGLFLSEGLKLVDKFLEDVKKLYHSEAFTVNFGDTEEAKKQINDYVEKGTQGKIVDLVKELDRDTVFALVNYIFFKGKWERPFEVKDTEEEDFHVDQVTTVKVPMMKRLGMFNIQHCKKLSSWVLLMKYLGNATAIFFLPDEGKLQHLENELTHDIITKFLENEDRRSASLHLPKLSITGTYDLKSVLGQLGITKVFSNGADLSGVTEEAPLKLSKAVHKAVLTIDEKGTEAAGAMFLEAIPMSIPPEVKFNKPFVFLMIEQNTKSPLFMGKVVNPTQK
T2 sequence (P02647 19-267): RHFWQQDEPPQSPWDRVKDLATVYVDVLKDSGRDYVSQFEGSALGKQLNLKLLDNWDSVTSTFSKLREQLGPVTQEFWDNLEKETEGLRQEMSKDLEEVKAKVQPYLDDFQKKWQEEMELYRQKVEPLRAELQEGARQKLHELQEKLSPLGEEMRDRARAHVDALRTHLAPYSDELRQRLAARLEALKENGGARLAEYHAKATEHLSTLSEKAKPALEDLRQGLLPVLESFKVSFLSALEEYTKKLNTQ

LIVHRW was tested. Which “Percent A1PI Eluted by Fraction Based on Absorbance at 280 nm, 1M NaCl” value ([1]; 4° C.) did it give?
The value was 74%.

What about the “Percent A1PI Eluted by Fraction Based on Absorbance at 280 nm, 2% Acetic Acid” value ([1]; 4° C.) of the same substance?
Its value is 26%.

And the “Percent A1PI Eluted by Fraction Based on Absorbance at 280 nm, Flowthrough” value ([1]; 4° C.)?
Its value is 0%.

What about the “Percent A1PI Eluted by Fraction, 1M NaCl” value ([1]; 20° C.) of the same substance?
The value was 64%.

And the “Percent A1PI Eluted by Fraction, 2% Acetic Acid” value ([1]; 20° C.)?
Its value is 36%.

And the “Percent A1PI Eluted by Fraction, Flowthrough” value ([1]; 20° C.)?
Its value is 0%.

And the “Mass Protein per Eluate Fraction, 1M NaCl” value ([2]; 4° C., * Below detection limit)?
The value was 0.40 mg.

What about the “Mass Protein per Eluate Fraction, 2% Ac. Acid” value ([2]; 4° C., * Below detection limit) of the same substance?
The value was 0.24 mg.

What about the “Percent Eluted by Fraction, 1M NaCl” value ([2]; 4° C.) of the same substance?
Its value is 62%.

What about the “Percent Eluted by Fraction, 2% Ac. Acid” value ([2]; 4° C.) of the same substance?
The value was 38%.

And the “Percent Eluted by Fraction, 3M NaCl” value ([2]; 4° C.)?
The value was 0%.

What about the “Percent Eluted by Fraction, Flow” value ([2]; 4° C.) of the same substance?
Its value is 0%.

And the “Mass Protein per Eluate Fraction, 1M NaCl” value [2, 9]?
The value was 0.15 mg.

What about the “Mass Protein per Eluate Fraction, 2% Ac. Acid” value [2, 9] of the same substance?
The value was 0.37 mg.

What about the “Mass Protein per Eluate Fraction, Flow” value [2, 9] of the same substance?
Its value is 0.34 mg.

And the “Percent Eluted by Fraction, 1M NaCl” value ([2]; 20° C.)?
Its value is 18%.

What about the “Percent Eluted by Fraction, 2% Ac. Acid” value ([2]; 20° C.) of the same substance?
The value was 43%.

What about the “Percent Eluted by Fraction, 3M NaCl” value ([2]; 20° C.) of the same substance?
The value was 0%.

What about the “Percent Eluted by Fraction, Flow” value ([2]; 20° C.) of the same substance?
Its value is 39%.

And the “Percent Eluted by Fraction, 1M NaCl” value [3]?
The value was 16%.

What about the “Percent Eluted by Fraction, 2% Acetic Acid” value [3] of the same substance?
The value was 25%.

And the “Percent Eluted by Fraction, 3M NaCl” value [3]?
Its value is 0%.

What about the “Percent Eluted by Fraction, Flow” value [3] of the same substance?
The value was 59%.

And the “Mass Protein per Eluate Fraction, 1M NaCl” value [3, 10]?
The value was 0.20 mg.

And the “Mass Protein per Eluate Fraction, 2% Acetic Acid” value [3, 10]?
The value was 0.30 mg.

What about the “Mass Protein per Eluate Fraction, Flow” value [3, 10] of the same substance?
Its value is 0.71 mg.

And the “Percent Eluted by Fraction, 1M NaCl” value [4]?
The value was 0%.

What about the “Percent Eluted by Fraction, 2% Acetic Acid” value [4] of the same substance?
Its value is 51%.

What about the “Percent Eluted by Fraction, 3M NaCl” value [4] of the same substance?
The value was 0%.

What about the “Percent Eluted by Fraction, Flow” value [4] of the same substance?
The value was 49%.

And the “Mass Protein per Eluate Fraction, 2% Acetic Acid” value [4, 10]?
The value was 0.30 mg.

And the “Mass Protein per Eluate Fraction, Flow” value [4, 10]?
Its value is 0.28 mg.

And the “Percent Eluted by Fraction, 1M NaCl” value [5]?
The value was 43%.

What about the “Percent Eluted by Fraction, 2% Acetic Acid” value [5] of the same substance?
The value was 20%.

And the “Percent Eluted by Fraction, 3M NaCl” value [5]?
The value was 0%.

And the “Percent Eluted by Fraction, Flow” value [5]?
Its value is 37%.

What about the “Mass Protein per Eluate Fraction, 1M NaCl” value [5, 10] of the same substance?
Its value is 0.18 mg.

What about the “Mass Protein per Eluate Fraction, 2% Acetic Acid” value [5, 10] of the same substance?
The value was 0.08 mg.

What about the “Mass Protein per Eluate Fraction, Flow” value [5, 10] of the same substance?
Its value is 0.15 mg.

What about the “Percent Eluted by Fraction, 1M NaCl” value [6] of the same substance?
Its value is 0%.

What about the “Percent Eluted by Fraction, 2% Acetic Acid” value [6] of the same substance?
Its value is 0%.

What about the “Percent Eluted by Fraction, 3M NaCl” value [6] of the same substance?
Its value is 0%.

And the “Percent Eluted by Fraction, Flow” value [6]?
The value was 100%.

What about the “Mass Protein per Eluate Fraction, Flow” value [6, 10] of the same substance?
The value was 0.31 mg.

What about the “Percent Eluted by Fraction, 1M NaCl” value [7] of the same substance?
Its value is 40%.

What about the “Percent Eluted by Fraction, 2% Acetic Acid” value [7] of the same substance?
Its value is 0%.

What about the “Percent Eluted by Fraction, 3M NaCl” value [7] of the same substance?
Its value is 0%.

And the “Percent Eluted by Fraction, Flow” value [7]?
The value was 60%.

And the “Mass Protein per Eluate Fraction, 1M NaCl” value [7, 10]?
The value was 0.29 mg.

What about the “Mass Protein per Eluate Fraction, Flow” value [7, 10] of the same substance?
Its value is 0.43 mg.

And the “Mass A1PI in Urea Eluate (mg), Activity” value ([8]; 1 mg A1PI, eluted with 2M urea, pH 6, elastase inhibition activity assay)?
The value was 0.75 mg.

And the “Mass A1PI in Urea Eluate (mg), Nephelometry” value ([8]; 1 mg A1PI, eluted with 2M urea, pH 6, immunonephelometry)?
Its value is 0.85 mg.

What about the “Specific Activity” value ([8]; mass of A1PI by activity assay relative to immunonephelometry, urea eluate) of the same substance?
The value was 0.88 mg/mg.
